Experimental data from patent EP4696714A1, “PREPARATION METHOD FOR NANOBODY TARGETING TISSUE FACTOR AND CONJUGATE AND USE THEREOF” (Fudan University, priority 2023, dated 2024).
Each block holds one binder with its values, some of them ahead of it.

Target: TF on the surface of tumor cells (MDA-MB-231, HPAF-II, HCC1806, BxPC3, HCC44, PC9, H1975 and other … (UniProt P13726 33-295, limits assumed))
Test: cell-based or functional assay

Cell proliferation inhibition IC50, BxPC3 cells (MTS): 28.8 ng/mL
Cell proliferation inhibition IC50, HCC1806 cells (MTS): 32.6 ng/mL
Cell proliferation inhibition IC50, HPAF-II cells (MTS): 24.3 ng/mL
B1: 4-E04-FC1-MMAE (4-E04-FC1 coupled to mc-vc-MMAE) (Fc fusion)
chain: AVQLVESGGGLVQPGGSLSLSCAASEMISSTYIMGWYRRSPGKERELVAVISGDGVTHYGDFVKGRFAISRDNVKNAVYLKMNFLTPEDTAVYYCNAAGRRNHWGQGTQVTVSSEPKSSDKTHTCPPCPAPEFEGGPSVFLFPPKPKDTLMISRTPEVTCVVVDVSHEDPEVKFNWYVDGVEVHNAKTKPREEQYNSTYRVVSVLTVLHQDWLNGKEYKCKVSNKALPASIEKTISKAKGQPREPQVYTLPPSRDELTKNQVSLTCLVKGFYPSDIAVEWESNGQPENNYKTTPPVLDSDGSFFLYSKLTVDKSRWQQGNVFSCSVMHEALHNHYTQKSLSLSPGK
modifications: mc-vc-MMAE coupled to cysteine thiols after TCEP reduction; the coupling did not complete and the proportion of coupling products was very low; positions not given

Cell proliferation inhibition IC50, BxPC3 cells (MTS): 8.6 ng/mL
Cell proliferation inhibition IC50, HCC1806 cells (MTS): 14 ng/mL
Cell proliferation inhibition IC50, HPAF-II cells (MTS): 7.7 ng/mL
B2: 4-C05-FC1-MMAE (4-C05-FC1 coupled to mc-vc-MMAE) (Fc fusion)
chain: QVQLVESGGGLVQPGGSLRLSCAASGFTLDTYAIGWIRQAPGKEREGVSCISSTDGSTYYAASVKGRFTINRDNAKNTVYLQMNSLKPEDTAVYYCAAGPGTDCPLRFDYWGQGIQVTVSSEPKSSDKTHTCPPCPAPEFEGGPSVFLFPPKPKDTLMISRTPEVTCVVVDVSHEDPEVKFNWYVDGVEVHNAKTKPREEQYNSTYRVVSVLTVLHQDWLNGKEYKCKVSNKALPASIEKTISKAKGQPREPQVYTLPPSRDELTKNQVSLTCLVKGFYPSDIAVEWESNGQPENNYKTTPPVLDSDGSFFLYSKLTVDKSRWQQGNVFSCSVMHEALHNHYTQKSLSLSPGK
modifications: mc-vc-MMAE coupled to cysteine thiols after TCEP reduction; target DAR 4; positions not given

Cell proliferation inhibition IC50, BxPC3 cells (MTS): 1.2 ng/mL
Cell proliferation inhibition IC50, HCC1806 cells (MTS): 4 ng/mL
Cell proliferation inhibition IC50, HPAF-II cells (MTS): 0.7 ng/mL
B3: F1-A01-FC1-MMAE (F1-A01-FC1 coupled to mc-vc-MMAE) (Fc fusion)
chain: EVQLVESGGGLVQAGGSLRLSCAASGRAFSAYAMGWFRQAPGKEREFVAAISWSGGSTYYADSVRGRFTISRDNTKNTVYLQMNSLKPEDTAVYYCNADSLLSLLDGSRGGPGTDSGSWGQGTQVTVSSEPKSSDKTHTCPPCPAPEFEGGPSVFLFPPKPKDTLMISRTPEVTCVVVDVSHEDPEVKFNWYVDGVEVHNAKTKPREEQYNSTYRVVSVLTVLHQDWLNGKEYKCKVSNKALPASIEKTISKAKGQPREPQVYTLPPSRDELTKNQVSLTCLVKGFYPSDIAVEWESNGQPENNYKTTPPVLDSDGSFFLYSKLTVDKSRWQQGNVFSCSVMHEALHNHYTQKSLSLSPGK
modifications: mc-vc-MMAE coupled to cysteine thiols after TCEP reduction; target DAR 4 (about 91% DAR4 by HIC); positions not given

Cell proliferation inhibition IC50, BxPC3 cells (MTS): 0.7 ng/mL
Cell proliferation inhibition IC50, HCC1806 cells (MTS): 0.5 ng/mL
Cell proliferation inhibition IC50, HPAF-II cells (MTS): 1 ng/mL
B4: 4-C08-FC1-MMAE (4-C08-FC1 coupled to mc-vc-MMAE) (Fc fusion)
chain: DVQLVESGGGLVQPGGSLRLSCAVSGFSLSSYDMNWYRQGPGKEREWVANIHSSGGYPDYADAVKGRFTISRDNAKNMVYLQMNSLKPEDTAVYYCNLPPSRRWYKDYWGQGTQVTVSSEPKSSDKTHTCPPCPAPEFEGGPSVFLFPPKPKDTLMISRTPEVTCVVVDVSHEDPEVKFNWYVDGVEVHNAKTKPREEQYNSTYRVVSVLTVLHQDWLNGKEYKCKVSNKALPASIEKTISKAKGQPREPQVYTLPPSRDELTKNQVSLTCLVKGFYPSDIAVEWESNGQPENNYKTTPPVLDSDGSFFLYSKLTVDKSRWQQGNVFSCSVMHEALHNHYTQKSLSLSPGK
modifications: mc-vc-MMAE coupled to cysteine thiols after TCEP reduction; DAR4 about 41.8% and DAR2 about 42.7% by HIC; positions not given

Cell proliferation inhibition IC50, BxPC3 cells (MTS): 5 ng/mL
Cell proliferation inhibition IC50, HCC1806 cells (MTS): 26 ng/mL
Cell proliferation inhibition IC50, HPAF-II cells (MTS): 12 ng/mL
B5: 5-C12-FC1-MMAE (5-C12-FC1 coupled to mc-vc-MMAE) (Fc fusion)
chain: QVQLVESGGGLAQAGGSLRLSCAGSGRTFSTDAMGWFRQAPGKEREFVAAINWSGGSTYYADSVKGRFTISRDNAKNTVYLQMNSVKPEDTAVYYCVADSLLALLDGSRGGPGTDSDSWGQGTQVTVSSEPKSSDKTHTCPPCPAPEFEGGPSVFLFPPKPKDTLMISRTPEVTCVVVDVSHEDPEVKFNWYVDGVEVHNAKTKPREEQYNSTYRVVSVLTVLHQDWLNGKEYKCKVSNKALPASIEKTISKAKGQPREPQVYTLPPSRDELTKNQVSLTCLVKGFYPSDIAVEWESNGQPENNYKTTPPVLDSDGSFFLYSKLTVDKSRWQQGNVFSCSVMHEALHNHYTQKSLSLSPGK
modifications: mc-vc-MMAE coupled to cysteine thiols after TCEP reduction; DAR4 about 66.2% and DAR2 about 21.9% by HIC; positions not given
